Experimental findings from patent US20150010526, “EVALUATION AND IMPROVEMENT OF NUCLEASE CLEAVAGE SPECIFICITY” (President and Fellows of Harvard College, published 2015) are described below.

What is called EC50 is the concentration giving half of the maximal effect. Read a low EC50 as greater potency.

In data set [1] the target is CCR5-224 ZFN pair expressed in K562 (artificial). Description: cell_activity; K562. To be noted: tags: FokI cleavage domain. As for the experimental part: We were unable to obtain site-specific PCR amplification products for three CCR5-224 sites and seven VF2468 sites and therefore could not analyze the occurrence of NHEJ at those loci. Taken together, these observations indicate that off-target sequences identified through the in vitro selection method include many DNA sequences that can be cleaved by ZFNs in human cells.
Chain of CCR5-224 ZFN pair expressed in K562 (artificial) (chain, as listed by the source, chain 1 of 2): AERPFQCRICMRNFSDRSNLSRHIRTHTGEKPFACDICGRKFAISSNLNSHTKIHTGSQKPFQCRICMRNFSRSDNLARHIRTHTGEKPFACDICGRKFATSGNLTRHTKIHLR
Chain of CCR5-224 ZFN pair expressed in K562 (artificial) (chain, as listed by the source, chain 2 of 2): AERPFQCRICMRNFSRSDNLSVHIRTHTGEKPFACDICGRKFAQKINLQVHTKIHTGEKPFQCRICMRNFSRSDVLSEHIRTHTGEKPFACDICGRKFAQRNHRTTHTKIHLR
To deliver ZFN expression plasmids into cells, 15 μg of either active CCR5-224 ZFN DNA or empty vector DNA were used to Nucleofect 2×10⁶ K562 cells in duplicate reactions following the manufacturer's instructions for Cell Line Nucleofector Kit V (Lonza). GFP-positive cells were isolated by FACS 24 hours post-transfection, expanded, and harvested five days post-transfection with the QIAamp DNA Blood Mini Kit (Qiagen).
PCR for 37 potential CCR5-224 substrates and 97 potential VF2468 substrates was performed with Phusion DNA Polymerase (NEB) and primers “[ZFN] […] fwd” and “[ZFN] […] rev” (Table 9) in 1× Phusion HF Buffer supplemented with 3% DMSO. Primers were designed using Primer3³³. The amplified DNA was purified with the Qiagen PCR Purification Kit, eluted with 10 mM Tris-HCl, pH 8.5, and quantified by 1K Chip on a LabChip GX instrument (Caliper Life Sciences) and combined into separate equimolar pools for the catalytically active and empty vector control samples. PCR products were not obtained for 3 CCR5 sites and 7 VF2468 sites, which excluded these samples from further analysis. Multiplexed Illumina library preparation was performed according to the manufacturer's specifications, except that AMPure XP beads (Agencourt) were used for purification following adapter ligation and PCR enrichment steps. Illumina indices 11 (“GGCTAC”) and 12 (“CTTGTA”) were used for ZFN-treated libraries while indices 4 (“TGACCA”) and 6 (“GCCAAT”) were used for the empty vector controls. Library concentrations were quantified by KAPA Library Quantification Kit for Illumina Genome Analyzer Platform (Kapa Biosystems). Equal amounts of the barcoded libraries derived from active- and empty vector-treated cells were diluted to 10 nM and subjected to single read sequencing on an Illumina HiSeq 2000 at the Harvard University FAS Center for Systems Biology Core facility. Sequences were analyzed using Protocol 9 for active ZFN samples and empty vector controls.

In data set [2] the target is VF2468 ZFN pair expressed in K562 (artificial). Kind of data set: cell_activity; K562. Particulars: tags: FokI cleavage domain.
Chain of VF2468 ZFN pair expressed in K562 (artificial) (chain, as listed by the source, chain 1 of 2): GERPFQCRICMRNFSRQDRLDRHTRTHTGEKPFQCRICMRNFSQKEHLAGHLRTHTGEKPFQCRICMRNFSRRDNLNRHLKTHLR
Chain of VF2468 ZFN pair expressed in K562 (artificial) (chain, as listed by the source, chain 2 of 2): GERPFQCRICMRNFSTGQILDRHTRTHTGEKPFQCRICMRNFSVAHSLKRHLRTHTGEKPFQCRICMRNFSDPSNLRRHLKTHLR
A further data set has as its target VF2468 ZFN pair (artificial). Description: cleavage_in_vitro; ZFN amount for 50% cleavage of 8 nM linear substrate, 4 h 37 C, 10 mM Mg acetate; FIG. 9 legend gives spacer as TCGAA. To be noted: tags: N-terminal FLAG, FokI cleavage domain. How it is done: (§1) FIGS. 6A-D. Expression and quantification of ZFNs. Western blots for CCR5-224 and VF2468 are shown (a) for the ZFN samples used in the in vitro selection, and (b) for quantification. (c) Known quantities of N-terminal FLAG-tagged bacterial alkaline phosphatase (FLAG-BAP) were used to generate a standard curve for ZFN quantification. […] (d) Gels are shown of activity assays of CCR5-224 and VF2468 on an 8 nM linear substrate containing one target cleavage site. The ZFNs were each incubated with their respective substrate for 4 hours at 37° C. DNA in the “+lysate” lane was incubated with an amount of in vitro transcription/translation mixture equivalent to that used in the 2.5 nM ZFN reaction. ZFN-mediated cleavage results in two linear fragments approximately 700 bp and 300 bp in length. 2 nM CCR5-224 and 1 nM VF2468 were the amounts required for 50% cleavage of the linear substrate.
(§2) Test substrates for CCR5-224 and VF2468 were constructed by cloning into the HindIII/XbaI sites of pUC19. PCR with primers “test fwd” and “test rev” and Taq DNA polymerase yielded a linear 1 kb DNA that could be cleaved by the appropriate ZFN into two fragments of sizes ˜300 bp and ˜700 bp. […] Reactions were purified with the Qiagen PCR Purification Kit and analyzed on 1% TAE-agarose gels.

For a further data set, the target named is CCR5-224 ZFN pair (artificial). Kind of data set: cleavage_in_vitro; ZFN amount for 50% cleavage of 8 nM linear substrate, 4 h 37 C, 10 mM Mg acetate. To be noted: tags: N-terminal FLAG, FokI cleavage domain. As for the experimental part:
as §1, §2

B1: CCR5-224 site 14 (dsDNA)
DNA 1: GTCCTGCTCAGCAAAAGAAACTGAAAAAG
DNA 2: CTTTTTCAGTTTCTTTTGCTGAGCAGGAC
The molecule B1 had an activity in data set [1] of 0.025 % indels.

B2: VF2468 site 79 (dsDNA)
DNA 1: AGCACCGTGGCTTCGAGTGAGGC
DNA 2: GCCTCACTCGAAGCCACGGTGCT
Molecule B2 had an activity in data set [2] of 0.029 % indels.

B3: CCR5-224 site 11 TACR3 (dsDNA)
DNA 1: GTCATCTTCATCAGCATAAACTGTAAAGT
DNA 2: ACTTTACAGTTTATGCTGATGAAGATGAC
B3 showed an activity in data set [1] of 0.34 % indels.

B4: CCR5-224 site 16 (dsDNA)
DNA 1: GTCTTCCTGATGCTACCAAACTGGAAAAG
DNA 2: CTTTTCCAGTTTGGTAGCATCAGGAAGAC
With B4, the activity in data set [1] came to 0.019 % indels.

B5: VF2468 site 73 (dsDNA)
DNA 1: AGCAAAGTCTGTACTGAGTGAGGG
DNA 2: CCCTCACTCAGTACAGACTTTGCT
In turn, B5 displayed an activity in data set [2] of 1.3 % indels.

B6: CCR5-224 site 9 (dsDNA)
DNA 1: GTCATCTTCATCAAAAGGAACTGCAAAAC
DNA 2: GTTTTGCAGTTCCTTTTGATGAAGATGAC
For B6, the activity in data set [1] amounted to 0.035 % indels.

B7: VF2468 site 1 VEGF-A promoter (dsDNA)
DNA 1: AGCAGCGTCTTCGAGAGTGAGGA
DNA 2: TCCTCACTCTCGAAGACGCTGCT
The molecule B7 showed an EC50 with VF2468 ZFN pair of 1 nM.

B8: VF2468 site 68 PDE9A (dsDNA)
DNA 1: AGCACCGTCCCCCTCAGTGAGGC
DNA 2: GCCTCACTGAGGGGGACGGTGCT
For B8, in data set [2], the activity came out at 0.28 % indels.

B9: CCR5-224 site 3 BTBD10 promoter (dsDNA)
DNA 1: GTTTTCCTCATCAAAGCAAACTGCAAAAT
DNA 2: ATTTTGCAGTTTGCTTTGATGAGGAAAAC
As to B9, the activity in data set [1] amounted to 0.07 % indels.

B10: VF2468 site 87 (dsDNA)
DNA 1: AGCATTGTCTCATGTGAGTGAGGT
DNA 2: ACCTCACTCACATGAGACAATGCT
In the case of B10, the activity in data set [2] was found to be 0.6 % indels.

B11: VF2468 site 72 (dsDNA)
DNA 1: AGAAACGTCGTGGAGGAGTGAGGG
DNA 2: CCCTCACTCCTCCACGACGTTTCT
In turn, B11 yielded an activity in data set [2] of 0.042 % indels.

B12: CCR5-224 site 25 WBSCR17 (dsDNA)
DNA 1: GTTATCCTCAGCAAACTAAAACTGGAACAG
DNA 2: CTGTTCCAGTTTTAGTTTGCTGAGGATAAC
In data set [1], B12 yielded an activity of 0.12 % indels.

B13: VF2468 site 18 (dsDNA)
DNA 1: AGCAGAGTCAGACTTGAGTGAGGT
DNA 2: ACCTCACTCAAGTCTGACTCTGCT
With B13, the activity in data set [2] came out at 0.1 % indels.

B14: CCR5-224 site 1 CCR5 (dsDNA)
DNA 1: GTCATCCTCATCCTGATAAACTGCAAAAG
DNA 2: CTTTTGCAGTTTATCAGGATGAGGATGAC
B14: the activity in data set [1] was 44 % indels. The same molecule gave a concentration giving a half-maximal response (EC50) with CCR5-224 ZFN pair of 2 nM.

B15: VF2468 site 11 PTK2B (dsDNA)
DNA 1: AGCAGCGTCTCCCTTGAGTGATGG
DNA 2: CCATCACTCAAGGGAGACGCTGCT
B15: in data set [2], the activity is 0.04 % indels.

B16: VF2468 site 23 (dsDNA)
DNA 1: AGCAGCGACGCCTGGGAGTGAGGT
DNA 2: ACCTCACTCCCAGGCGTCGCTGCT
B16 displayed an activity in data set [2] of 1.1 % indels.

B17: CCR5-224 site 2 CCR2 (dsDNA)
DNA 1: GTCGTCCTCATCTTAATAAACTGCAAAAA
DNA 2: TTTTTGCAGTTTATTAAGATGAGGACGAC
In data set [1], B17 came in with an activity of 10 % indels.

B18: CCR5-224 site 21 (dsDNA)
DNA 1: GTCAACCTCAACACCTACAGACTGCAAAAG
DNA 2: CTTTTGCAGTCTGTAGGTGTTGAGGTTGAC
In data set [1], B18 gave an activity of 0.06 % indels.

B19: CCR5-224 site 15 KCNB2 (dsDNA)
DNA 1: ATGTTCCTCATCTCCCGAAACTGCAAATG
DNA 2: CATTTGCAGTTTCGGGAGATGAGGAACAT
As for B19, the activity in data set [1] came out at 0.071 % indels.

B20: VF2468 site 80 (dsDNA)
DNA 1: AGCACGGTCATGATGAGTGAGGC
DNA 2: GCCTCACTCATCATGACCGTGCT
B20: in data set [2], the activity was determined as 0.041 % indels.
